From publication PMC9103804, “RNA and Protein Determinants Mediate Differential Binding of miRNAs by a Viral Suppressor of RNA Silencing Thus Modulating Antiviral Immune Responses in Plants” (International Journal of Molecular Sciences, 2022)

Legend:
CIRV p19 = target: T1, CIRV p19 (Carnation Italian ringspot virus, UniProt Q66104 1-172); assay: EMSA; settings: protein: recombinant, tags: GST tag removed (PreScission, pGEX-6P-1), chain copies: 2, label: 5'-32P, 3' overhangs 2 nt
T1 sequence: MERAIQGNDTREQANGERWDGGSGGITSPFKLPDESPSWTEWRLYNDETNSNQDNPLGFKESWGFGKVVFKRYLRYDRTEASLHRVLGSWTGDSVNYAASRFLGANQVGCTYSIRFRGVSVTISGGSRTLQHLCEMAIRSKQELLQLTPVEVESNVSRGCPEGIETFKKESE

TAV 2b [1] = target: T2, TAV 2b (Tomato aspermy virus, UniProt Q8UYT3 1-95); assay: competition; Kc vs labeled gf698; settings: protein: recombinant, tags: His-SUMO removed, chain copies: 2, label: 5'-32P, 3' overhangs 2 nt
T2 sequence: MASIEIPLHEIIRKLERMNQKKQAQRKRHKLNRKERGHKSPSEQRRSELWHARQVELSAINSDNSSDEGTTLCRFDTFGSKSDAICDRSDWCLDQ

TAV 2b [2] = target: T2, TAV 2b; assay: EMSA; settings: protein: recombinant; tags: His-SUMO removed; chain copies: 2; label: 5'-32P; 3' overhangs 2 nt
[3] = target: the molecule itself; assay: AUC; analytical ultracentrifugation at protein concentrations of 1.2-13 uM (CIRV p19); data not shown; procedure as in ref. 36

B1: miR162-15gC/5*C (dsRNA)
RNA 1: UCGAUAAACCUCUGCAUCCAG
RNA 2: GGAUCCAGAGGUUCAUCGAUC
modifications: 5'-phosphate
Kd (CIRV p19; C/C mismatch): 0.23 ± 0.08 nM

B2: miR162-0 (dsRNA)
RNA 1: UCGAUAAACCUCUGCAUCCAG
RNA 2: GGAUGCAGAGGUUCAUCGAUC
modifications: 5'-phosphate
Kd (CIRV p19): 0.15 ± 0.06 nM

B3: miR162-12gU/8*G (dsRNA)
RNA 1: UCGAUAAACCUUUGCAUCCAG
RNA 2: GGAUGCAGAGGUUCAUCGAUC
modifications: 5'-phosphate
Kd (CIRV p19; G-U wobble): 1.93 ± 0.13 nM

B4: miR162-10gC/10*C (dsRNA)
RNA 1: UCGAUAAACCUCUGCAUCCAG
RNA 2: GGAUGCAGACGUUCAUCGAUC
modifications: 5'-phosphate
Kd (CIRV p19; C/C mismatch): 1.73 ± 0.57 nM

B5: miR162-17gU/3*C (dsRNA)
RNA 1: UCGAUAAACCUCUGCAUCCAG
RNA 2: GGCUGCAGAGGUUCAUCGAUC
modifications: 5'-phosphate
Kd (CIRV p19; C/U mismatch): 0.3 ± 0.17 nM

B6: AtmiR168a (dsRNA)
RNA 1: UCGCUUGGUGCAGGUCGGGAA
RNA 2: CCCGCCUUGCAUCAACUGAAU
modifications: 5'-phosphate
Kd (CIRV p19; mismatches and G-U wobbles): 2.49 ± 0.88 nM
Ki (TAV 2b [1]; mismatches and G-U wobbles): 12.1 ± 0.7 nM

B7: AtmiR168a variant 5 (dsRNA)
RNA 1: UCGCUUGGUGCAGGUCGGGAA
RNA 2: CCCGACUUGCACCAAGUGAAU
modifications: 5'-phosphate
Kd (CIRV p19; G-U wobbles): 0.48 ± 0.17 nM
Ki (TAV 2b [1]; G-U wobbles): 1.4 ± 0.2 nM

B8: miR162-18gC/2*C (dsRNA)
RNA 1: UCGAUAAACCUCUGCAUCCAG
RNA 2: GCAUGCAGAGGUUCAUCGAUC
modifications: 5'-phosphate
Kd (CIRV p19; C/C mismatch): 0.12 ± 0.08 nM

B9: AtmiR168a variant 2 (dsRNA)
RNA 1: UCGCUUGGUGCAGGUCGGGAA
RNA 2: CCCGCCUUGCACCAACUGAAU
modifications: 5'-phosphate
Kd (CIRV p19; mismatches and G-U wobbles): 0.71 ± 0.28 nM
Ki (TAV 2b [1]; mismatches and G-U wobbles): 1.1 ± 0.2 nM

B10: miR162-16gA/4*G (dsRNA)
RNA 1: UCGAUAAACCUCUGCAUCCAG
RNA 2: GGAGGCAGAGGUUCAUCGAUC
modifications: 5'-phosphate
Kd (CIRV p19; G/A mismatch): 0.38 ± 0.13 nM

B11: miR162-13gU/7*G (dsRNA)
RNA 1: UCGAUAAACCUCUGCAUCCAG
RNA 2: GGAUGCGGAGGUUCAUCGAUC
modifications: 5'-phosphate
Kd (CIRV p19; G-U wobble): 1.82 ± 0.38 nM

B12: miR162-10gC/10*A (dsRNA)
RNA 1: UCGAUAAACCUCUGCAUCCAG
RNA 2: GGAUGCAGAAGUUCAUCGAUC
modifications: 5'-phosphate
Kd (CIRV p19; A/C mismatch): 0.35 ± 0.24 nM

B13: AtmiR168a variant 4 (dsRNA)
RNA 1: UCGCUUGGUGCAGGUCGGGAA
RNA 2: CCCGACCUGCAUCAAAUGAAU
modifications: 5'-phosphate
Kd (CIRV p19; G-U wobbles): 2.65 ± 0.49 nM

B14: miR162-12gG/8*U (dsRNA)
RNA 1: UCGAUAAACCUGUGCAUCCAG
RNA 2: GGAUGCAUAGGUUCAUCGAUC
modifications: 5'-phosphate
Kd (CIRV p19; U-G wobble): 0.31 ± 0.08 nM

B15: gf698 siRNA (dsRNA)
RNA 1: UAGUUCAUCCAUGCCAUGUGU
RNA 2: ACAUGGCAUGGAUGAACUAUA
modifications: 5'-phosphate
Kd (TAV 2b [2]): 0.68 ± 0.15 nM
Kd (CIRV p19): 0.06 ± 0.04 nM
Ki (TAV 2b [1]): 0.53 ± 0.08 nM

B16: miR162-10gU/10*G (dsRNA)
RNA 1: UCGAUAAACUUCUGCAUCCAG
RNA 2: GGAUGCAGAGGUUCAUCGAUC
modifications: 5'-phosphate
Kd (CIRV p19; G-U wobble): 0.63 ± 0.21 nM

B17: AtmiR162 (dsRNA)
RNA 1: UCGAUAAACCUCUGCAUCCAG
RNA 2: GGAGGCAGCGGUUCAUCGAUC
modifications: 5'-phosphate
Kd (CIRV p19; mismatches): 0.06 ± 0.02 nM
Ki (TAV 2b [1]; mismatches): 0.67 ± 0.09 nM

B18: miR162-14gU/6*G (dsRNA)
RNA 1: UCGAUAAACCUCUUCAUCCAG
RNA 2: GGAUGGAGAGGUUCAUCGAUC
modifications: 5'-phosphate
Kd (CIRV p19; G-U wobble): 0.45 ± 0.08 nM

B19: miR162-14gG/6*U (dsRNA)
RNA 1: UCGAUAAACCUCUGCAUCCAG
RNA 2: GGAUGUAGAGGUUCAUCGAUC
modifications: 5'-phosphate
Kd (CIRV p19; U-G wobble): 0.15 ± 0.09 nM

B20: miR162-13gU/7*C (dsRNA)
RNA 1: UCGAUAAACCUCUGCAUCCAG
RNA 2: GGAUGCCGAGGUUCAUCGAUC
modifications: 5'-phosphate
Kd (CIRV p19; C/U mismatch): 1.01 ± 0.1 nM

B21: miR162-15gU/5*G (dsRNA)
RNA 1: UCGAUAAACCUCUGUAUCCAG
RNA 2: GGAUGCAGAGGUUCAUCGAUC
modifications: 5'-phosphate
Kd (CIRV p19; G-U wobble): 0.1 ± 0.01 nM

B22: miR162-18gU/2*G (dsRNA)
RNA 1: UCGAUAAACCUCUGCAUUCAG
RNA 2: GGAUGCAGAGGUUCAUCGAUC
modifications: 5'-phosphate
Kd (CIRV p19; G-U wobble): 0.13 ± 0.03 nM

B23: AtmiR168a variant 1 (dsRNA)
RNA 1: UCGCUUGGUGCAGGUCGGGAA
RNA 2: CCCGCCCUGCAUCAACUGAAU
modifications: 5'-phosphate
Kd (CIRV p19; mismatches and G-U wobbles): 3.13 ± 1.67 nM

B24: miR162-11gU/9*C (dsRNA)
RNA 1: UCGAUAAACCUCUGCAUCCAG
RNA 2: GGAUGCAGCGGUUCAUCGAUC
modifications: 5'-phosphate
Kd (CIRV p19; C/U mismatch): 0.22 ± 0.03 nM

B25: miR162-12gC/8*C (dsRNA)
RNA 1: UCGAUAAACCUCUGCAUCCAG
RNA 2: GGAUGCACAGGUUCAUCGAUC
modifications: 5'-phosphate
Kd (CIRV p19; C/C mismatch): 0.28 ± 0.24 nM

B26: miR162-19gC/1*C (dsRNA)
RNA 1: UCGAUAAACCUCUGCAUCCAG
RNA 2: CGAUGCAGAGGUUCAUCGAUC
modifications: 5'-phosphate
Kd (CIRV p19; C/C mismatch): 0.34 ± 0.15 nM

B27: AtmiR168a variant 6 (dsRNA)
RNA 1: UCGCUUGGUGCAGGUCGGGAA
RNA 2: CCCGACCUGCACCAAGCGAAU
modifications: 5'-phosphate
Kd (CIRV p19): 0.34 ± 0.16 nM
Ki (TAV 2b [1]): 0.38 ± 0.05 nM

B28: miR162-19gU/1*G (dsRNA)
RNA 1: UCGAUAAACCUCUGCAUCUAG
RNA 2: GGAUGCAGAGGUUCAUCGAUC
modifications: 5'-phosphate
Kd (CIRV p19; G-U wobble): 0.15 ± 0.12 nM

B29: miR162-17gU/3*G (dsRNA)
RNA 1: UCGAUAAACCUCUGCAUCCAG
RNA 2: GGGUGCAGAGGUUCAUCGAUC
modifications: 5'-phosphate
Kd (CIRV p19; G-U wobble): 0.09 ± 0.04 nM

B30: p19 protein of Carnation Italian ringspot virus (CIRV) (natural protein)
chain: T1 sequence
notes: p19 suppressor of RNA silencing, Carnation Italian ringspot virus (Tombusvirus); the p19 ORF cloned into pGEX-6P-1, GST removed with PreScission protease; Residues of the vector may be left at the N-terminus after PreScission cleavage (surmised); also called CIRV p19; p19 wt; source: E. coli BL21 (DE3) RIPL, purified (GSTrap, PreScission cleavage, Resource Q anion exchange)
stoichiometry N [3]: 2

B31: miR162-14gG/6*A (dsRNA)
RNA 1: UCGAUAAACCUCUGCAUCCAG
RNA 2: GGAUGAAGAGGUUCAUCGAUC
modifications: 5'-phosphate
Kd (CIRV p19; A/G mismatch): 0.86 ± 0.49 nM

B32: miR162-13gG/7*U (dsRNA)
RNA 1: UCGAUAAACCUCGGCAUCCAG
RNA 2: GGAUGCUGAGGUUCAUCGAUC
modifications: 5'-phosphate
Kd (CIRV p19; U-G wobble): 1.53 ± 0.49 nM

B33: miR162-12gC/8*A (dsRNA)
RNA 1: UCGAUAAACCUCUGCAUCCAG
RNA 2: GGAUGCAAAGGUUCAUCGAUC
modifications: 5'-phosphate
Kd (CIRV p19; A/C mismatch): 0.16 ± 0.03 nM

B34: miR162-16gU/4*G (dsRNA)
RNA 1: UCGAUAAACCUCUGCUUCCAG
RNA 2: GGAGGCAGAGGUUCAUCGAUC
modifications: 5'-phosphate
Kd (CIRV p19; G-U wobble): 0.17 ± 0.05 nM

B35: AtmiR168a variant 3 (dsRNA)
RNA 1: UCGCUUGGUGCAGGUCGGGAA
RNA 2: CCCGCCCUGCACCAACUGAAU
modifications: 5'-phosphate
Kd (CIRV p19; mismatches): 1 ± 0.24 nM
Ki (TAV 2b [1]; mismatches): 2.2 ± 0.4 nM

B36: miR162-12gG/8*G (dsRNA)
RNA 1: UCGAUAAACCUGUGCAUCCAG
RNA 2: GGAUGCAGAGGUUCAUCGAUC
modifications: 5'-phosphate
Kd (CIRV p19; G/G mismatch): 0.07 ± 0.04 nM

B37: miR162-11gU/9*G (dsRNA)
RNA 1: UCGAUAAACCUCUGCAUCCAG
RNA 2: GGAUGCAGGGGUUCAUCGAUC
modifications: 5'-phosphate
Kd (CIRV p19; G-U wobble): 0.14 ± 0.12 nM
